These results are taken from article PMC6978369, “Peptidoglycan reshaping by a noncanonical peptidase for helical cell shape in Campylobacter jejuni” (Nature Communications, 2020).

For orientation: stoichiometry N means a count of units in the complex or per binding partner.

Experiment [1] concerns the target Pgp3 H247A mutant, residues 21-273 (C. jejuni (strain ATCC 33560)). The experiment can be described thus: crystal structure; H247A protein (10 mg/mL, 20 mM Tris-HCl pH 8.0, 200 mM NaCl) mixed with peptide in a 1:10 molar ratio, 277 K for 1 h; crystals grown at 296 K in 1.8 M ammonium citrate tribasic pH 7.0.
Another experiment deals with T1, Pgp3 (Campylobacter jejuni, UniProt A0AAD2UT50).
T1 construct: gene A8118_01115; residues 21-273 (Glu21 to Gln273 in Methods, Asn273 in Results) without N-terminal 20 residues, of 274 aa; expressed in E. coli Rosetta2 (DE3); Zn enzyme
T1 sequence (A0AAD2UT50 entry or part of it): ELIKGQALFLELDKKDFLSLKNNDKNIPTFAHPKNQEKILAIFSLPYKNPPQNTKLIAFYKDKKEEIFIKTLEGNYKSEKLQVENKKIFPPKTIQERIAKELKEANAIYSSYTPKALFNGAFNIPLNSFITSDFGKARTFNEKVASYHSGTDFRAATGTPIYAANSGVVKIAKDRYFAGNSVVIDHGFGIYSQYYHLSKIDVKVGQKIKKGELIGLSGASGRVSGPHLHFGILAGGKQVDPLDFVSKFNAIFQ
Put plainly: LC/MS turnover assay. The format is biochemical. Particulars: D,D-endopeptidase; 50 mM Tris pH 7.5, 23 °C.

With “crosslinked muramyl tetra-tri peptide 2, NAM-L-Ala1-γ-D-Glu2-mDAP3-D-Ala4-mDAP3-γ-D-Glu2-Ala1-NAM”, the stoichiometry N in experiment [1] came to 1. Regarding “pentapeptide 1, Ac-L-Ala1-γ-D-Glu2-mDAP3-D-Ala4-D-Ala5”, in experiment [1], the stoichiometry N was 1. As for `CO[C@@H]1O[C@H](CO)[C@@H](O)[C@H](O[C@H](C)C(=O)N[C@@H](C)C(=O)N[C@H](CCC(=O)N[C@@H](CCC[C@@H](NC(=O)[C@@H](C)NC(=O)[C@H](CCC[C@@H](N)C(=O)O)NC(=O)CC[C@@H](NC(=O)[C@H](C)NC(=O)[C@@H](C)O[C@H]2[C@H](O)[C@@H](CO)O[C@@H](OC)[C@@H]2NC(C)=O)C(=O)O)C(=O)O)C(=O)O)C(=O)O)[C@H]1NC(C)=O` [compound 2, crosslinked muramyl tetra-tri peptide], the LC/MS turnover assay entry on Pgp3 was “Pgp3 exhibited both D,D-carboxypeptidase and D,D-endopeptidase activities based on LC/MS analysis”.
